Here are results for two molecules from WO2013125221A1.

Where no end group is shown, it is not given here.

Test [1] concerns the target Herceptin scFv antibody (His-tagged, self-prepared). Briefly: peptide magnetic bead immunoprecipitation, SDS-PAGE / anti-His blot, band intensity semi-quantified.
Test [2] shares this target. Briefly: peptide magnetic bead immunoprecipitation, SDS-PAGE / anti-His blot, semi-quantitative.

B1: code 166 peptide (peptide)
peptide: FHRSHWYQTWVP
modifications: also: biotinylated (site not given here)
With B1, the Herceptin scFv antibody recovery rate in test [1] came out at 30%.

B2: code 4 peptide (peptide)
peptide: WSEYDIPTPQIP
modifications: also: biotinylated (site not given here)
Take B2: the Herceptin scFv antibody recovery rate in test [2] was 23%; in test [1] it was 30%.
